{"source": "paper PMC6390181", "about": "“Ovalbumin Epitope [sequence] Self-Assembles into a Supramolecular Hydrogel” (Scientific Reports, 2019)", "proteins": {"B1": {"name": "OVA257-264 octapeptide SIINFEKL (peptide)", "peptide": "SIINFEKL", "notes": "ovalbumin (OVA), residues 257-264; Assembles into nanofibrils and a hydrogel; the number of peptides in an assembly is not defined; source: synthetic peptide (Fmoc-SPPS, purified by RP-HPLC)"}}, "biological_target": "the molecule itself", "assay": "hydrogel formation (visual inspection, rheology); purified peptide dissolved in Millipore water at 0.5% or 1% (w/v); room temperature; gel seen at once (1%) or after overnight incubation (0.5%); rheology after 24 h; the analogue was followed for 72 h"}
{"protein": "B1", "values": [{"measurement": "binding result", "result": "binds"}]}
